Source: US20250352661A1 (MYTHIC THERAPEUTICS, published 2025)
Values belong to the binder of their own block, whether it stands above or below them.

Tests used:
[1] = biological target: T1, Human LRRC15 Protein, His Tag (Acro Biosystems) (human, UniProt Q8TF66 22-538, limits assumed); test: BLI; dissociation pH 7.4 black, pH 5.4 grey [2/2); D00007 FIG. 1E (2/2]
T1 sequence (looked up): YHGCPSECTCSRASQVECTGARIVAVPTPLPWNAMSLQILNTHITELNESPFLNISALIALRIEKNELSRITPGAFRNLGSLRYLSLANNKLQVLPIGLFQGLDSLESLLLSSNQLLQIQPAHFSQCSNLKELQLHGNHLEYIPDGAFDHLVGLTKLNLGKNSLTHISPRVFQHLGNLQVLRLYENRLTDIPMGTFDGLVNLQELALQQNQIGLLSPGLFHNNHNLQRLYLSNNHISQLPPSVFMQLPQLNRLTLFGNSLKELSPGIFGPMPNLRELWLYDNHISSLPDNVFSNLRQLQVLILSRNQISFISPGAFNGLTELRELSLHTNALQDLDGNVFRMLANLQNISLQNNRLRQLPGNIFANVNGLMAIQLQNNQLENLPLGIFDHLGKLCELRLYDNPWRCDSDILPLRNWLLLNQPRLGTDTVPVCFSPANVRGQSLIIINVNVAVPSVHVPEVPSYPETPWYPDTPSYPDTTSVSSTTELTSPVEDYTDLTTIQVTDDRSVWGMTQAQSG
Excerpt: For each individual plot, antigen binding proteins were captured on anti-human Fc biosensors and associated with LRRC15 at pH 7.4. Dissociation was at pH 7.4 (black) or pH 5.4 (grey). Major X-axis ticks=100 seconds, with left dashed vertical line=0 seconds. Major Y-axis ticks=0.5 nm and octet plots are shown MYT5712 and MYT6080-MYT6121.
Multiple LRRC15-binding monoclonal antibodies have been described in the literature and can be used as a template for engineering pH-dependent binding. We selected discovery RabMAb clone 15G7 (rabbit VH SEQ ID NO: 378, rabbit VL SEQ ID NO: 451; humanized VH SEQ ID NO: 382, humanized VL SEQ ID NO: 455) as a LRRC15-binding monoclonal antibody for pH-engineering via histidine scanning. […] To generate pH-dependent sequence variants, individual amino acid residues within the heavy chain CDRs were systematically substituted with a histidine (or alanine if H was already present in a given position; e.g., MYT6099), one at a time (rabbit, MYT6080-6121). Desirable mutations were transferred to a humanized framework (humanized, MYT 8387-8411). After allowing for four days of protein expression, cell culture supernatants were collected, quantified by SDS-PAGE analysis, and the pH dependence of the variant was evaluated using biolayer interferometry (BLI) on an Octet RED 96e instrument. Briefly, cell culture supernatants were diluted based on qualitative expression level of the variant determined by visual examination of SDS-PAGE gels, 5 μL of cell culture supernatant was diluted into 195 μL of 1×PBST, pH 7.4 for high expressors, 25 μL of cell culture supernatant was diluted into 175 μL of 1×PBST, pH 7.4 for medium expressors and 100 μL of cell culture supernatant was diluted into 100 μL of 1×PBST, pH 7.4 for low expressors for loading onto the sensor tips.

[2] = biological target: T2, LRRC15 on LRRC15 positive cell lines SAOS2 and G292 (UniProt Q8TF66 22-581, limits assumed); test: cell binding on SAOS2 cells (LRRC15 positive), pH 7.4; parameters: unit not given here
T2 construct: whole, on cells
T2 sequence (looked up): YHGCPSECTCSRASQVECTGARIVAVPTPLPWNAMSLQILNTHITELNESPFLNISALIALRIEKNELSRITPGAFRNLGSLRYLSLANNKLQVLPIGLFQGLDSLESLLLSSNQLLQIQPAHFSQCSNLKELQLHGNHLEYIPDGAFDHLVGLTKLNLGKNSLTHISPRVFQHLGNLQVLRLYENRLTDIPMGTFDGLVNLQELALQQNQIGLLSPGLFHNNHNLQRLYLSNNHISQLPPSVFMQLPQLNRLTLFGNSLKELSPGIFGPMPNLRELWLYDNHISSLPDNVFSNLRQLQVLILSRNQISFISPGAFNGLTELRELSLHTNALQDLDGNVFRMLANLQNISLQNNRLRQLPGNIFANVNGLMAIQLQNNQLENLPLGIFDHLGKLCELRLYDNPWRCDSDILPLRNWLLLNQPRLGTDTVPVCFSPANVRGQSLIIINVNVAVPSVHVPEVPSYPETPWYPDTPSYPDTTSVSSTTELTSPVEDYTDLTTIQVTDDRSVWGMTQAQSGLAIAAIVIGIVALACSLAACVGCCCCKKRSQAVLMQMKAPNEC

[3] = biological target: T2, LRRC15 on LRRC15 positive cell lines …; test: cell binding on G292 cells (LRRC15 positive), pH 7.4; parameters: unit not given here

B1: MYT6111 (antibody, V domains shown)
VH: QEQLEESGGDLVKPGASLTLTCTASGLDFRRTNYICWVRQAPGKGLEWIGCIYIADVVHYYASWAKGRFTFSKTSSTTVTLQMTSLTAADTATYFCARGHDGGFVYGMDLWGPGTLVTVSS
VL: DVVMTQTPASVSEPVGGTVTIKCQASQSIGNYLSWYQQKPGQRPKRLIYSASTLPSGVPSRFKGAGSGTEFTLTISDLESADAATYYCQNNYWLAGYGHPFGGGTEVVVK
notes: chimeric rabbit 15G7 variant (rabbit variable domains, human constant regions); also called 15G7 VH A100H
binding result [1]: binds

B2: MYT6121 (antibody, V domains shown)
VH: QEQLEESGGDLVKPGASLTLTCTASGLDFRRTNYICWVRQAPGKGLEWIGCIYIADVVHYYASWAKGRFTFSKTSSTTVTLQMTSLTAADTATYFCARGADGGFVYGMDHWGPGTLVTVSS
VL: DVVMTQTPASVSEPVGGTVTIKCQASQSIGNYLSWYQQKPGQRPKRLIYSASTLPSGVPSRFKGAGSGTEFTLTISDLESADAATYYCQNNYWLAGYGHPFGGGTEVVVK
notes: chimeric rabbit 15G7 variant (rabbit variable domains, human constant regions); also called 15G7 VH L110H
binding result [1]: binds

B3: MYT6119 (antibody, V domains shown)
VH: QEQLEESGGDLVKPGASLTLTCTASGLDFRRTNYICWVRQAPGKGLEWIGCIYIADVVHYYASWAKGRFTFSKTSSTTVTLQMTSLTAADTATYFCARGADGGFVYGHDLWGPGTLVTVSS
VL: DVVMTQTPASVSEPVGGTVTIKCQASQSIGNYLSWYQQKPGQRPKRLIYSASTLPSGVPSRFKGAGSGTEFTLTISDLESADAATYYCQNNYWLAGYGHPFGGGTEVVVK
notes: chimeric rabbit 15G7 variant (rabbit variable domains, human constant regions); also called 15G7 VH M108H
binding result [1]: binds

B4: MYT6112 (antibody, V domains shown)
VH: QEQLEESGGDLVKPGASLTLTCTASGLDFRRTNYICWVRQAPGKGLEWIGCIYIADVVHYYASWAKGRFTFSKTSSTTVTLQMTSLTAADTATYFCARGAHGGFVYGMDLWGPGTLVTVSS
VL: DVVMTQTPASVSEPVGGTVTIKCQASQSIGNYLSWYQQKPGQRPKRLIYSASTLPSGVPSRFKGAGSGTEFTLTISDLESADAATYYCQNNYWLAGYGHPFGGGTEVVVK
notes: chimeric rabbit 15G7 variant (rabbit variable domains, human constant regions); also called 15G7 VH D101H
binding result [1]: binds

B5: MYT6120 (antibody, V domains shown)
VH: QEQLEESGGDLVKPGASLTLTCTASGLDFRRTNYICWVRQAPGKGLEWIGCIYIADVVHYYASWAKGRFTFSKTSSTTVTLQMTSLTAADTATYFCARGADGGFVYGMHLWGPGTLVTVSS
VL: DVVMTQTPASVSEPVGGTVTIKCQASQSIGNYLSWYQQKPGQRPKRLIYSASTLPSGVPSRFKGAGSGTEFTLTISDLESADAATYYCQNNYWLAGYGHPFGGGTEVVVK
notes: chimeric rabbit 15G7 variant (rabbit variable domains, human constant regions); also called 15G7 VH D109H
binding result [1]: binds

B7: MYT6114 (antibody, V domains shown)
VH: QEQLEESGGDLVKPGASLTLTCTASGLDFRRTNYICWVRQAPGKGLEWIGCIYIADVVHYYASWAKGRFTFSKTSSTTVTLQMTSLTAADTATYFCARGADGHFVYGMDLWGPGTLVTVSS
VL: DVVMTQTPASVSEPVGGTVTIKCQASQSIGNYLSWYQQKPGQRPKRLIYSASTLPSGVPSRFKGAGSGTEFTLTISDLESADAATYYCQNNYWLAGYGHPFGGGTEVVVK
notes: chimeric rabbit 15G7 variant (rabbit variable domains, human constant regions); also called 15G7 VH G103H
binding result [1]: binds

B8: MYT6115 (antibody, V domains shown)
VH: QEQLEESGGDLVKPGASLTLTCTASGLDFRRTNYICWVRQAPGKGLEWIGCIYIADVVHYYASWAKGRFTFSKTSSTTVTLQMTSLTAADTATYFCARGADGGHVYGMDLWGPGTLVTVSS
VL: DVVMTQTPASVSEPVGGTVTIKCQASQSIGNYLSWYQQKPGQRPKRLIYSASTLPSGVPSRFKGAGSGTEFTLTISDLESADAATYYCQNNYWLAGYGHPFGGGTEVVVK
notes: chimeric rabbit 15G7 variant (rabbit variable domains, human constant regions); also called 15G7 VH F104H
binding result [1]: binds

B12: MYT8391 (antibody, V domains shown)
VH: EVQLVESGGGLVQPGGSLRLSCTASGLDFRRTNYICWVRQAPGKGLEWVGCIYIADVVHYYASWAKGRFTFSRDTSKNTVYLQMNSLRAEDTAVYYCARGADGGFHYGMDLWGQGTLVTVSS
VL: EIVMTQSPSTLSASVGDRVIITCQASQSIGNYLSWYQQKPGKAPKRLIYSASTLPSGVPSRFSGSGSGAEFTLTISSLQPDDFATYYCQNNYWLAGYGHPFGQGTKLTVL
notes: Humanized 15G7 variant (HC descriptor V106H); also called hu 15G7 HC his variant; hu 15G7 HC his scan variant
Affinity [2]: 0.483 | Affinity [3]: 0.336

B13: MYT8415 (antibody, V domains shown)
VH: EVQLVESGGGLVQPGGSLRLSCTASGLDFRRTNYICWVRQAPGKGLEWVGCIYIADVVHYYASWAKGRFTFSRDTSKNTVYLQMNSLRAEDTAVYYCARGADGGFVYGMDLWGQGTLVTVSS
VL: EIVMTQSPSTLSASVGDRVIITCQASQSIGNYLSWYQQKPGKAPKRLIYSASTLPSGVPSRFSGSGSGAEFTLTISSLQPDDFATYYCQNNHWLAGYGHPFGQGTKLTVL
notes: Humanized 15G7 variant (LC descriptor Y108H); also called hu 15G7 LC his variant
Affinity [2]: 0.754 | Affinity [3]: 1.11

B14: MYT8416 (antibody, V domains shown)
VH: EVQLVESGGGLVQPGGSLRLSCTASGLDFRRTNYICWVRQAPGKGLEWVGCIYIADVVHYYASWAKGRFTFSRDTSKNTVYLQMNSLRAEDTAVYYCARGADGGFVYGMDLWGQGTLVTVSS
VL: EIVMTQSPSTLSASVGDRVIITCQASQSIGNYLSWYQQKPGKAPKRLIYSASTLPSGVPSRFSGSGSGAEFTLTISSLQPDDFATYYCQNNYHLAGYGHPFGQGTKLTVL
notes: Humanized 15G7 variant (LC descriptor W109H); also called hu 15G7 LC his variant
Affinity [2]: 1.15 | Affinity [3]: 1.37

Second part, the binder after the results:

binding result [1]: no binding (tested: 50 nM LRRC15)
B6: MYT6118 (antibody, V domains shown)
VH: QEQLEESGGDLVKPGASLTLTCTASGLDFRRTNYICWVRQAPGKGLEWIGCIYIADVVHYYASWAKGRFTFSKTSSTTVTLQMTSLTAADTATYFCARGADGGFVYHMDLWGPGTLVTVSS
VL: DVVMTQTPASVSEPVGGTVTIKCQASQSIGNYLSWYQQKPGQRPKRLIYSASTLPSGVPSRFKGAGSGTEFTLTISDLESADAATYYCQNNYWLAGYGHPFGGGTEVVVK
notes: chimeric rabbit 15G7 variant (rabbit variable domains, human constant regions); also called 15G7 VH G107H

binding result [1]: binds
B9: MYT6113 (antibody, V domains shown)
VH: QEQLEESGGDLVKPGASLTLTCTASGLDFRRTNYICWVRQAPGKGLEWIGCIYIADVVHYYASWAKGRFTFSKTSSTTVTLQMTSLTAADTATYFCARGADHGFVYGMDLWGPGTLVTVSS
VL: DVVMTQTPASVSEPVGGTVTIKCQASQSIGNYLSWYQQKPGQRPKRLIYSASTLPSGVPSRFKGAGSGTEFTLTISDLESADAATYYCQNNYWLAGYGHPFGGGTEVVVK
notes: chimeric rabbit 15G7 variant (rabbit variable domains, human constant regions); also called 15G7 VH G102H

binding result [1]: binds
B10: MYT6116 (antibody, V domains shown)
VH: QEQLEESGGDLVKPGASLTLTCTASGLDFRRTNYICWVRQAPGKGLEWIGCIYIADVVHYYASWAKGRFTFSKTSSTTVTLQMTSLTAADTATYFCARGADGGFHYGMDLWGPGTLVTVSS
VL: DVVMTQTPASVSEPVGGTVTIKCQASQSIGNYLSWYQQKPGQRPKRLIYSASTLPSGVPSRFKGAGSGTEFTLTISDLESADAATYYCQNNYWLAGYGHPFGGGTEVVVK
notes: chimeric rabbit 15G7 variant (rabbit variable domains, human constant regions); also called 15G7 VH V105H

binding result [1]: binds
B11: MYT6117 (antibody, V domains shown)
VH: QEQLEESGGDLVKPGASLTLTCTASGLDFRRTNYICWVRQAPGKGLEWIGCIYIADVVHYYASWAKGRFTFSKTSSTTVTLQMTSLTAADTATYFCARGADGGFVHGMDLWGPGTLVTVSS
VL: DVVMTQTPASVSEPVGGTVTIKCQASQSIGNYLSWYQQKPGQRPKRLIYSASTLPSGVPSRFKGAGSGTEFTLTISDLESADAATYYCQNNYWLAGYGHPFGGGTEVVVK
notes: chimeric rabbit 15G7 variant (rabbit variable domains, human constant regions); also called 15G7 VH Y106H
